The results in this text go back to article PMC5103180.

Assay [1] concerns the target ATS‐C fragment of PfEMP1 variant PFL0030c (VAR2CSA) (Plasmodium falciparum). The assay is described as follows: fluorescence polarisation; 500 nM 5-FAM-labelled ATS-C variants titrated with unlabelled PFE1605w PHIST domain; 20°C; 50 mM NaCl, 20 mM Na2HPO4 pH 6.5; single-site model. For orientation: Polarisation of emitted light reports the rotation of a fluorescent probe.

Assay [2] addresses PFE1605w‐C (Plasmodium falciparum). The assay is described as follows: fluorescence polarisation; 0.5 μM 5-FAM-labelled PFE1605w-C titrated with unlabelled band 3 cytosolic domain (or BSA as negative control); 20°C; 50 mM NaCl, 20 mM Na2HPO4 pH 7.0; single-site model.

What is called Kd is the free concentration of one partner at which half of the binding sites on the other are occupied at equilibrium, for simple one-to-one binding. Higher therefore signals lower affinity. Substance “PFE1605w PHIST domain (domain or fragment)” gave a Kd in assay [1] of 90 µM.
“band 3 cytosolic domain (from UniProt P02730 1-379) (domain or fragment)”: the Kd in assay [2] was found to be 1.5 µM.
